Laboratory results: patent publication US20030068675, “Position dependent recognition of GNN nucleotide triplets by zinc fingers” (published 2003)

Tests used:
Assay in all cases: EMSA
Details in all cases: tags: MBP fusion
ZFP SBS#973 = molecular target: T1, ZFP SBS#973 (synthetic)
T1 chain: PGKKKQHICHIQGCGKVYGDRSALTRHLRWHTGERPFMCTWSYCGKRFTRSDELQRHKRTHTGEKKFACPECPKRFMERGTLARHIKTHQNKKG
In short: (§1)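 Purified ZFP was titrated against labeled double-stranded target (1 nM or lower, at least 10-fold below expected Kd) carrying the natural binding site with flanks. Binding buffer was 10 mM Tris pH 7.5, 100 mM KCl, 1 mM MgCl2, 0.1 mM ZnCl2, 5 mM DTT, 10% glycerol, 0.02% BSA, with equilibration for at least 45 min. Bound and free target were separated on a 10% polyacrylamide gel.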

ZFP SBS#974 = molecular target: T2, ZFP SBS#974 (synthetic)
T2 chain: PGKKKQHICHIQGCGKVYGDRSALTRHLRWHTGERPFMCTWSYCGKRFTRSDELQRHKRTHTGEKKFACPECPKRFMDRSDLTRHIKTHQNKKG
In short: as §1

ZFP SBS#966 = molecular target: T3, ZFP SBS#966 (synthetic)
T3 chain: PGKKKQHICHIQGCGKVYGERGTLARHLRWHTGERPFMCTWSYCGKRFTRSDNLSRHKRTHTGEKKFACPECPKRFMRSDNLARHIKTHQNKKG
In short: as §1

ZFP SBS#967 = molecular target: T4, ZFP SBS#967 (synthetic)
T4 chain: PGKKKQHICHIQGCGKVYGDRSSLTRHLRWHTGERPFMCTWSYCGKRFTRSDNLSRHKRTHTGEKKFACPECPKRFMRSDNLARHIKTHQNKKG
In short: as §1

ZFP SBS#985 = molecular target: T5, ZFP SBS#985 (synthetic)
T5 chain: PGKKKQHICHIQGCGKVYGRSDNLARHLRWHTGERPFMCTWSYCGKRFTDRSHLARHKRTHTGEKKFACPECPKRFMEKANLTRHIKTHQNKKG
In short: as §1

ZFP SBS#984 = molecular target: T6, ZFP SBS#984 (synthetic)
T6 chain: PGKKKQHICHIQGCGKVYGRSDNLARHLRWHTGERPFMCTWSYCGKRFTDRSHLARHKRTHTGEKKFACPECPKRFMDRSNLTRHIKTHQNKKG
In short: as §1

ZFP SBS#981 = molecular target: T7, ZFP SBS#981 (synthetic, UniProt P08047)
T7 chain: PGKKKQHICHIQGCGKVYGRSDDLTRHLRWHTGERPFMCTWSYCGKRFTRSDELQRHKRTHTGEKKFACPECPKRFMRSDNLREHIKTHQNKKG
In short: as §1

ZFP SBS#934 = ZFP SBS#934 (synthetic)
Chain of ZFP SBS#934 (synthetic) (chain, as listed by the source): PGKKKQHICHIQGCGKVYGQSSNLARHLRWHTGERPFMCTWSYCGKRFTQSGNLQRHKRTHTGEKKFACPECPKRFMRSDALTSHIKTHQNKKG
In short: as §1

ZFP SBS#910 = ZFP SBS#910 (synthetic)
Chain of ZFP SBS#910 (synthetic) (chain, as listed by the source): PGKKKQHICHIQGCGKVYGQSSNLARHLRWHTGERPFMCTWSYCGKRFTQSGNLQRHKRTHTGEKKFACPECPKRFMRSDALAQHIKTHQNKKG
In short: as §1

ZFP SBS#976 = ZFP SBS#976 (synthetic)
Chain of ZFP SBS#976 (synthetic) (chain, as listed by the source): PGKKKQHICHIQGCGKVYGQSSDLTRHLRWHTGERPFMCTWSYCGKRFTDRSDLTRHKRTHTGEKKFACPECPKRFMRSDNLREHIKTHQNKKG
In short: as §1

ZFP SBS#975 = molecular target: T8, ZFP SBS#975 (synthetic)
T8 chain: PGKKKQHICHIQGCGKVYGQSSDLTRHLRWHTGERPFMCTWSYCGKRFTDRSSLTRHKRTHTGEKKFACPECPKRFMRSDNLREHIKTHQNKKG
In short: as §1

ZFP SBS#970 = molecular target: T9, ZFP SBS#970 (synthetic)
T9 chain: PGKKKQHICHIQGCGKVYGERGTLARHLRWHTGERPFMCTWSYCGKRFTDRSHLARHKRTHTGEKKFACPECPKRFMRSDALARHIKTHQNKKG
In short: as §1

ZFP SBS#971 = molecular target: T10, ZFP SBS#971 (synthetic)
T10 chain: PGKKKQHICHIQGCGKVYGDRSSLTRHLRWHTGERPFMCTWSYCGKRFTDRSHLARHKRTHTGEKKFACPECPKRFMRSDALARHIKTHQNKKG
In short: as §1

ZFP SBS#972 = molecular target: T11, ZFP SBS#972 (synthetic)
T11 chain: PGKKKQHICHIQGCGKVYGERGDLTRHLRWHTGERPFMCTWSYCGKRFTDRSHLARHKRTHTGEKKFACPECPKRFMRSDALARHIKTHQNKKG
In short: as §1

ZFP SBS#931 = ZFP SBS#931 (synthetic)
Chain of ZFP SBS#931 (synthetic) (chain, as listed by the source): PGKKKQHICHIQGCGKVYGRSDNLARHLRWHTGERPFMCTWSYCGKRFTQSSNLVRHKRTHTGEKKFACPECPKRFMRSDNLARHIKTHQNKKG
In short: as §1

ZFP SBS#983 = molecular target: T12, ZFP SBS#983 (synthetic)
T12 chain: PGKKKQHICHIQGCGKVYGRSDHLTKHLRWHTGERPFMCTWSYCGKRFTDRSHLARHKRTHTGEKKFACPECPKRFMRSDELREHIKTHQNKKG
In short: as §1

ZFP SBS#982 = molecular target: T13, ZFP SBS#982 (synthetic)
T13 chain: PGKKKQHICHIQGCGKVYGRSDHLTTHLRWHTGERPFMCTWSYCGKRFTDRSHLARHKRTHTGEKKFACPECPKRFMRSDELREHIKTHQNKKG
In short: as §1

ZFP SBS#933 = molecular target: T14, ZFP SBS#933 (synthetic)
T14 chain: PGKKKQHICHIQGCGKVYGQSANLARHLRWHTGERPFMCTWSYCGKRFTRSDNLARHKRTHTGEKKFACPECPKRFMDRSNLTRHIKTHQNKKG
In short: as §1

ZFP SBS#935 = ZFP SBS#935 (synthetic)
In short: as §1

ZFP SBS#911 = ZFP SBS#911 (synthetic)
Chain of ZFP SBS#911 (synthetic) (chain, as listed by the source): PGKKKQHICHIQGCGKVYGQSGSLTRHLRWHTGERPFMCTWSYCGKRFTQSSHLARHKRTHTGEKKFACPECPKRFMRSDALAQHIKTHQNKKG
In short: as §1

ZFP SBS#978 = molecular target: T15, ZFP SBS#978 (synthetic)
T15 chain: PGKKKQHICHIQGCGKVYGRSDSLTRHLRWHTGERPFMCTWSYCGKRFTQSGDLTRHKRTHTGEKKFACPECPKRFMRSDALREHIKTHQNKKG
In short: as §1

ZFP SBS#977 = molecular target: T16, ZFP SBS#977 (synthetic)
T16 chain: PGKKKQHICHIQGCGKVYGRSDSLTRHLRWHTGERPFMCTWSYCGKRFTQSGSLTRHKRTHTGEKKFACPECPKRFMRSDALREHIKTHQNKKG
In short: as §1

ZFP SBS#965 = molecular target: T17, ZFP SBS#965 (synthetic)
T17 chain: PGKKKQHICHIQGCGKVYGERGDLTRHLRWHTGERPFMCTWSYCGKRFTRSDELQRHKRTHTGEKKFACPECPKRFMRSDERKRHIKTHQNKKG
In short: as §1

ZFP SBS#932 = molecular target: T18, ZFP SBS#932 (synthetic)
T18 chain: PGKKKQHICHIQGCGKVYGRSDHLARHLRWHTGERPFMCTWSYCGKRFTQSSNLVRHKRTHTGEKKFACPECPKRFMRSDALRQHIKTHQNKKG
In short: as §1

ZFP SBS#903 = ZFP SBS#903 (synthetic)
Chain of ZFP SBS#903 (synthetic) (chain, as listed by the source): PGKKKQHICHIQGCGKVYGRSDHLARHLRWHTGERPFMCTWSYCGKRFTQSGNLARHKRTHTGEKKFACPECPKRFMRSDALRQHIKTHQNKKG
In short: as §1

ZFP SBS#968 = molecular target: T19, ZFP SBS#968 (synthetic)
T19 chain: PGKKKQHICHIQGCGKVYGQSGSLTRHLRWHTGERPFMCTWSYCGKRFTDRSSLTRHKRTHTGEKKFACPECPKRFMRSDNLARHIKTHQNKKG
In short: as §1

ZFP SBS#969 = molecular target: T20, ZFP SBS#969 (synthetic)
T20 chain: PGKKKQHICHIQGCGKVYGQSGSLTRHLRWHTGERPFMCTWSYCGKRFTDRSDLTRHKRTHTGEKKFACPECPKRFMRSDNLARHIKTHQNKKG
In short: as §1

ZFP SBS#435 = molecular target: T21, ZFP SBS#435 (synthetic)
T21 chain: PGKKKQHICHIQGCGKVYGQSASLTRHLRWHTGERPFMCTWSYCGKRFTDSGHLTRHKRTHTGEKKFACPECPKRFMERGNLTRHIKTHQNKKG
In short: as §1

ZFP SBS#434 = molecular target: T22, ZFP SBS#434 (synthetic)
T22 chain: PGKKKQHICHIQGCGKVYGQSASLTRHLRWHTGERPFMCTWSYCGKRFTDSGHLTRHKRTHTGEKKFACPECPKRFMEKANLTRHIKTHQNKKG
In short: as §1

ZFP SBS#437 = ZFP SBS#437 (synthetic)
Chain of ZFP SBS#437 (synthetic) (chain, as listed by the source): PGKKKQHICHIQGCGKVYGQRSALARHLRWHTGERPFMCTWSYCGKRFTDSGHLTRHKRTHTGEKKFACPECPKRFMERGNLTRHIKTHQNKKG
In short: as §1

ZFP SBS#436 = ZFP SBS#436 (synthetic)
Chain of ZFP SBS#436 (synthetic) (chain, as listed by the source): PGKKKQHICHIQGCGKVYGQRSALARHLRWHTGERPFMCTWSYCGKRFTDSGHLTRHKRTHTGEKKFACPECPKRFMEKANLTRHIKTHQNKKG
In short: as §1

ZFP SBS#946 = molecular target: T23, ZFP SBS#946 (synthetic)
T23 chain: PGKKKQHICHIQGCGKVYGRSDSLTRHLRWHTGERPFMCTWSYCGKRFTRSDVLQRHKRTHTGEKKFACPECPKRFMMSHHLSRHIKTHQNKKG
In short: as §1

ZFP SBS#945 = molecular target: T24, ZFP SBS#945 (synthetic)
T24 chain: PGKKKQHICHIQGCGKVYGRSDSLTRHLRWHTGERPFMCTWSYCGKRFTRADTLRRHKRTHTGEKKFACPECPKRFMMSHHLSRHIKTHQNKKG
In short: as §1

ZFP SBS#948 = ZFP SBS#948 (synthetic)
Chain of ZFP SBS#948 (synthetic) (chain, as listed by the source): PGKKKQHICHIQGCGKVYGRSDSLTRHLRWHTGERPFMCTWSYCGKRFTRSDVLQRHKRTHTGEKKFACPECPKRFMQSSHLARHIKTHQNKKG
In short: as §1

ZFP SBS#947 = ZFP SBS#947 (synthetic)
Chain of ZFP SBS#947 (synthetic) (chain, as listed by the source): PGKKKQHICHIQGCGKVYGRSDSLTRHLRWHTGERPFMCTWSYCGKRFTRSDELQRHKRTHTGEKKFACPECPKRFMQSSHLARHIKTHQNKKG
In short: as §1

ZFP SBS#962 = ZFP SBS#962 (synthetic, UniProt P08047)
Chain of ZFP SBS#962 (P08047 other isoform, or with tags, fused parts or gaps): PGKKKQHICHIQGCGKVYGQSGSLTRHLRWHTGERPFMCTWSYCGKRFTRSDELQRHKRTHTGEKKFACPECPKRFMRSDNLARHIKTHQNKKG
In short: as §1

ZFP SBS#963 = ZFP SBS#963 (synthetic)
In short: as §1

B1: GCCGCGGTC (dsDNA)
DNA 1: GCCGCGGTC
DNA 2: GACCGCGGC
- Kd (ZFP SBS#973): 0.6 nM
- Kd (ZFP SBS#974): 0.038 nM

B2: GAGGAGGCC (dsDNA)
DNA 1: GAGGAGGCC
DNA 2: GGCCTCCTC
- Kd (ZFP SBS#966): 0.028 nM
- Kd (ZFP SBS#967): 0.055 nM

B3: GACGGCGAG (dsDNA)
DNA 1: GACGGCGAG
DNA 2: CTCGCCGTC
- Kd (ZFP SBS#985): 0.965 nM
- Kd (ZFP SBS#984): 1.6 nM

B4: CAGGCGGCG (dsDNA)
DNA 1: CAGGCGGCG
DNA 2: CGCCGCCTG
- Kd (ZFP SBS#981): 0.375 nM

B5: ATGGAAGAT (dsDNA)
DNA 1: ATGGAAGAT
DNA 2: ATCTTCCAT
- Kd (ZFP SBS#934): 0.07 nM
- Kd (ZFP SBS#910): 0.03 nM

B6: CAGGCCGCT (dsDNA)
DNA 1: CAGGCCGCT
DNA 2: AGCGGCCTG
- Kd (ZFP SBS#976): 4.12 nM
- Kd (ZFP SBS#975): 1.1 nM

B7: GTGGGCGCC (dsDNA)
DNA 1: GTGGGCGCC
DNA 2: GGCGCCCAC
- Kd (ZFP SBS#970): 1.86 nM
- Kd (ZFP SBS#971): 0.144 nM
- Kd (ZFP SBS#972): 1.75 nM

B8: GAGGAAGAG (dsDNA)
DNA 1: GAGGAAGAG
DNA 2: CTCTTCCTC
- Kd (ZFP SBS#931): 2 nM

B9: CCGGGCTGG (dsDNA)
DNA 1: CCGGGCTGG
DNA 2: CCAGCCCGG
- Kd (ZFP SBS#983): 1.39 nM
- Kd (ZFP SBS#982): 0.03 nM

B10: GACGAGGAA (dsDNA)
DNA 1: GACGAGGAA
DNA 2: TTCCTCGTC
- Kd (ZFP SBS#933): 500 nM

B11: ATGGGTGCA (dsDNA)
DNA 1: ATGGGTGCA
DNA 2: TGCACCCAT
- Kd (ZFP SBS#935): 0.91 nM
- Kd (ZFP SBS#911): 0.91 nM

B12: CTGGCAGTG (dsDNA)
DNA 1: CTGGCAGTG
DNA 2: CACTGCCAG
- Kd (ZFP SBS#978): 1.58 nM
- Kd (ZFP SBS#977): 0.017 nM

B13: GCGGCGGCC (dsDNA)
DNA 1: GCGGCGGCC
DNA 2: GGCCGCCGC
- Kd (ZFP SBS#965): 3.1 nM

B14: ATGGAAGGG (dsDNA)
DNA 1: ATGGAAGGG
DNA 2: CCCTTCCAT
- Kd (ZFP SBS#932): 797 nM
- Kd (ZFP SBS#903): 1.03 nM

B15: GAGGCCGCA (dsDNA)
DNA 1: GAGGCCGCA
DNA 2: TGCGGCCTC
- Kd (ZFP SBS#968): 1.4 nM
- Kd (ZFP SBS#969): 0.275 nM

B16: GACGGCGTA (dsDNA)
DNA 1: GACGGCGTA
DNA 2: TACGCCGTC
- Kd (ZFP SBS#435): 150 nM
- Kd (ZFP SBS#434): 152 nM
- Kd (ZFP SBS#437): 118 nM
- Kd (ZFP SBS#436): 95 nM

B17: GGTGCGGTG (dsDNA)
DNA 1: GGTGCGGTG
DNA 2: CACCGCACC
- Kd (ZFP SBS#946): 0.027 nM
- Kd (ZFP SBS#945): 0.027 nM
- Kd (ZFP SBS#948): 0.017 nM
- Kd (ZFP SBS#947): 0.013 nM

B18: GAGGCGGCA (dsDNA)
DNA 1: GAGGCGGCA
DNA 2: TGCCGCCTC
- Kd (ZFP SBS#962): 0.015 nM
- Kd (ZFP SBS#963): 0.015 nM
